# From the nanobody polyreactivity screen of Harvey et al. (2022)
# Assay: yeast display, Sf9 membrane polyspecificity reagent, FACS + sequencing; frameworks hold sequencing errors
# How it was run: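 Using colony PCR, genes from sorted yeast display clones were amplified, then sequenced on MiSeq at 2 × 250 and filtered by CDR length. The clones had been stained with 10% biotinylated, detergent-solubilized Sf9 membrane reagent for 1 hour at 4 °C and sorted by FACS into low and high (top ~1%) gates on anti-HA and streptavidin fluorescence. Polyreactivity labels come from the gate of origin.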
row,Sequence,polyreactivity (PSR sort gate)
1,QVQLVESGGGLVQAGGSLRLSCAASGFIFANYAMGWYRQAPGKERELVAVISQRGGRTYYADSVKGRFTISRDNAKNTVYLQMNSLKPEDTAVYYCNAVTGEWGQGTQVTVSS,low polyreactivity
2,QVQLVESGGGLVQAGGSLRLSCAASGFIFARYAMGWNRQAPGKERELVAAISTSGGSTYYADSVKGRFTISRDNAKNTVYLQMNSLNPEDTAVYYCNKLRLSRLVHPSGYYWGQGTQVTVSS,high polyreactivity
3,QVQLVESGGGLVQAGGSLRLSCAASGFIFASYAMGWYRQAPGTERELVAAISWRGGSTYYADSVKGRFTISRDNAKNTVYLQMNSLKPEDTAVYYCNAYGYDGTGRGYDTLDYWGQGTQVTVSS,low polyreactivity
4,QVQLVESGGGLVQAGGSLRLSCAASGFIFAWYAMGWYRQAAGKERQLVATISSSGARTYYADSVKGRFTISRDNAKITVYLQMNSLKPEDTAVYYCAFGSVGRLKFYYWGQGTQVTVSS,high polyreactivity
5,QVQLVESGGGLVQAGGSLRLSCAASGFIFAWYAMGWYRQAPGKERELVAAIDYSDGTTYYADSVKGRFTISRDNAKNTVYLQMNSLKPEDTAVYYCAAYNEFVYEDDYWGQGTQVTVSA,low polyreactivity
6,QVQLVESGGGLVQAGGSLRLSCAASGFIFAYNAMGWYRQAPGKERELVAAISSRGSRTYYADSVKGRFTISRDKAKNTVYLQMNSLKPEDTAVYYCAARYSRGGFGYWGQGTQVTVSS,high polyreactivity
7,QVQLVESGGGLVQAGGSLRLSCAASGFIFAYNAMGWYRQAPGKERELVAAISWSGGSTYYADSVKGRFTISRDNAKNTVFLQMNSLLPEDTAVYYCAARYRRNKYYYWGQGTQVTVSS,high polyreactivity
8,QVQLVESGGGLVQAGGSLRLSCAASGFIFAYNAMGWYRQAPGKERELVAAISWSGGSTYYADSVKGRFTISRDNAKNTVYLQLNSLKPEDTAVYYCNKYIRYPFKRYGYWGQGTQVTVSS,high polyreactivity
9,QVQLVESGGGLVQAGGSLRLSCAASGFIFAYYAMGWYRQAPGKERELVAAITNSGGSTYYADSVKGRFTISRDNAKNTVYLQMNSLKPEDTAVYYCAAVIRPRYYQVRPRYDYWGQGTQVTVSS,low polyreactivity
10,QVQLVESGGGLVQAGGSLRLSCAASGFIFAYYAMGWYRQAPGKERELVAAITSSGGSTYYADSVKGRFTISRDNAKHTVYLQMNSLKPEDTAVYYCNAVPRHYKGYYWGQGTQVTVSS,high polyreactivity
11,QVQLVESGGGLVQAGGSLRLSCAASGFIFCINAMGWYRQAPGKERELVAAISRSGGRTYYADSVKGRFTISRDNAKNTVYLQMNSLKPEDTAVYYCAADKASYTNYDGDYWGQGTQVTVSS,high polyreactivity
12,QVQLVESGGGLVQAGGSLRLSCAASGFIFDAYAMGWYRQAPGKERELVAGISIGGRTNYADSVKGRFTISRDNAKNTVYLQMNSLKPEDTAVYYCAARNYRYYYGSYYRGPITNYEYWGQGTQVTVSS,low polyreactivity
13,QVQLVESGGGLVQAGGSLRLSCAASGFIFDDNAMGWSRQAPGKDWELVAASTSGGGSTYYADSVKGRFTISRDNAKNTVYLQMTSLKPEDTAVYYCYAVPSQPDEFDYWGQGTQATVSS,low polyreactivity
14,QVQLVESGGGLVQAGGSLRLSCAASGFIFDDNAMGWYRQAPGKEREVVAAITSGGGSTYYADSVKGRFTISRDNAKNTVYLQMNSLKPEDTAVYYCNAVPSQHDEFDYWGQGTQVTVSS,low polyreactivity
15,QVQLVESGGGLVQAGGSLRLSCAASGFIFDEYAMGWYRQAPGKERELVAAISWSGSRTYYADSVKGRFTISRDNAKNTVYLQMNRLKPEDTSVYYCAKVTGVVAGRRNYWGQGTQVTVSS,low polyreactivity
16,QVQLVESGGGLVQAGGSLRLSCAASGFIFDGNAMGWYRQAPGKERELLAAISWDGGTYYADSVKGRFTISRDNAKNTVYLQMNSLKPEDTAVYYCNKPYGAETAHREFDYWGQGTQVTVSS,low polyreactivity
17,QVQLVESGGGLVQAGGSLRLSCAASGFIFDGYAMGWYRPAPGKERELVAAIDSGGDRTYYADSVKGRFTISRDNAKNTVYLQMNSLKPEDTAVYYCAADSSDPTGYDYWGQGTQVTVSS,low polyreactivity
18,QVQLVESGGGLVQAGGSLRLSCAASGFIFDIYAMGGYRPAPGKERELVAAISSGGSTNYADSVKGRFTISRDNAKNTVYLQMNSLKPEDTAVYYCAADRSDLAEEGYAGYDYWGQGTQVTVSS,low polyreactivity
19,QVQLVESGGGLVQAGGSLRLSCAASGFIFDKYAMGWYRQAPGKERELVATITSGGSTYYADSVKGRFTISRDNAKNTVYLQMNSLKPEDTAVYYCAALDYGYRWYRYYYWGQGTQVTVSS,high polyreactivity
20,QVQLVESGGGLVQAGGSLRLSCAASGFIFDKYVMGWYRQAPGKERELVAAISSGGSTYYADSVKGRFTISRDNAKNTVYLQMNSLKPEDTAVYYCNAGGFWPWVYGYDSWGQGTQVTVSS,high polyreactivity
21,QVQLVESGGGLVQAGGSLRLSCAASGFIFDRNTMGWYRQAPGKERELVAAISRSGGSTYYADSVKGRFTISRDNAKNTVYLQMNSLKPEDTAVYYCAALYYYRNRSYDYWGQGTQVTVSS,high polyreactivity

row,Sequence,polyreactivity (PSR sort gate)
1,QVQLVESGGGLVQAGGSLRLSCAASGFIFDRYAMGWYRQAPGKERELVAAIDTASSTNYADSVKGRFTISRDNAKNTVYLQMNSLKPEDTGVYYCNASGYYYVIYWKVSNYNYWGQGTQVTVSS,low polyreactivity
2,QVQLVESGGGLVQAGGSLRLSCAASGFIFDSNVMGWYRQAPGKERELVATITNRGGRTYYADSVKGRFTISRDNAKNTVYLQMNSLKPEDTAVYYCNRRWIWTRDRGGYWGQGTQVTVSS,low polyreactivity
3,QVQLVESGGGLVQAGGSLRLSCAASGFIFDTYAMGWYRQAPGKERELVAAISYRGGSTYYADSVKGRFTISRDNAKNTVYLQMNSLKPEDTAVYYCNAYWRYSYFGRDYWGQGTQVTVSS,low polyreactivity
4,QVQLVESGGGLVQAGGSLRLSCAASGFIFDVNAMGWYRQAPGKERELVAAISRSGSSTYYADSVKGRFTISRDNAKNTVYFQMNSLKPEDTAVYYCAAEYYRNFYCSRGYWGQGTQVTVSS,high polyreactivity
5,QVQLVESGGGLVQAGGSLRLSCAASGFIFDYNVMGWYSQAPGKKGSWVAAISWSGGSTYYADSVKGRFTISRDNAKNTVYLEINSLKPEDTAVYYCSSRGTSTFRGTGRYDYWGQGTQVTVSS,high polyreactivity
6,QVQLVESGGGLVQAGGSLRLSCAASGFIFDYSAMGWYRQAPGKERELVAAISHSGGTTYYADSVKGRFTISRDKAKNTVYLQMNSLKPEDTAVYYCNALYRKDFNSEYDYWGPGTQVTVSS,high polyreactivity
7,QVQLVESGGGLVQAGGSLRLSCAASGFIFDYYGMGWYRQAPGKERELVAAITRGGSTYYADSVKGRFTISRDNAKNTVYLQMNSLKPEDTAFYYCAAKYVSQGYDYWGQGTQVTVSS,high polyreactivity
8,QVQLVESGGGLVQAGGSLRLSCAASGFIFEAYTMGWSRQAPGKERELVASIDWDGGSTYYADSVKGRFTISRDNAKNTVYLQMNSLKPEDTAVYYCAADSRQYDELGDYDYWGQGTQVTVSS,low polyreactivity
9,QVQLVESGGGLVQAGGSLRLSCAASGFIFENNAKGWYRQAPGKERELVAGITSGGGSTYYADSVKGRFTISRDNAKNTVYLQMNSLKPEDTAVYYFNKLYTRVGFTFEYWGQGTQVNVSS,low polyreactivity
10,QVQLVESGGGLVQAGGSLRLSCAASGFIFERYAMGWYRKAPGKERELVAGIYSGGSTYYADSVKGRFTISRDNAKNTVYLQMNSLKPEDTAVYYCAAFRRQHIIYNYWGQGTQVTVSS,high polyreactivity
11,QVQLVESGGGLVQAGGSLRLSCAASGFIFESNAMGWYRQAPGKERELVAAISKRGGSTYYADSVKGRFTISRDNAKNTVYLQMNSLKPEDTAVYYCNKARGYYHPGYQYGLDYWGQGTQVTVSS,high polyreactivity
12,QVQLVESGGGLVQAGGSLRLSCAASGFIFEYNTMGWYRQAPGKERELVAAISRRGGSTYYADSVKGRFTISRDNAKNTVYLQMKSLKPEDTAVYYCATDPGARVHYPTGDYWGQGTQVTVSS,high polyreactivity
13,QVQLVESGGGLVQAGGSLRLSCAASGFIFFDNAMGWYRHAPGKETELVAVISSSGTSTYYADSVKGRFTISRDNAKNTVYLQMNSLKPEDTAVYYCNATARTGVYLESDYWGQGTQVTVSS,low polyreactivity
14,QVQLVESGGGLVQAGGSLRLSCAASGFIFFKYAMRWYRQAPGKEREFVAAISKSGTSTYYADSVKGRFTISRDNAKNTVYLQMNSLKPEDTAVYYCAARKDSYYYRSYDSWGQGTQVTVSS,high polyreactivity
15,QVQLVESGGGLVQAGGSLRLSCAASGFIFFQYAMGWYRPAPGKERELVAAISGSGVTTYYADSVKGRFTISRDNAKNTVYLQMNSLKPDDTAVYYCNAGSVSDRQMDYWGQGTQVTVSS,low polyreactivity
16,QVQLVESGGGLVQAGGSLRLSCAASGFIFFQYAMGWYRQAPGKERELVAAITARSGSTYYADSVKGRFTISRDNAKNTVYLQMNSLKPEDTAVYYCAARPRYYRWGPLDYWGQGTQVTVSS,high polyreactivity
17,QVQLVESGGGLVQAGGSLRLSCAASGFIFFRYDMGWYRQAPGKERELVAVITSSGSTNYADSVKGRFTISRDNAKNTVYLQMNSLKPEDTAVYYCNARVSGVYRRRVNYWGEGTQVTVSS,high polyreactivity
18,QVQLVESGGGLVQAGGSLRLSCAASGFIFFVNAMGWYRQAPGKEREFVATITGSGGSTYYADSVKGRFTISRDNAKNTVYLQMNSLKPEDTAVYYCAALGPYLDYGVQYGYWGQGTQVTVSS,low polyreactivity
19,QVQLVESGGGLVQAGGSLRLSCAASGFIFFYAMGWYRQAPGKERELVASIDSGVSTDYADSVKGRFTISRDNAKNTDYLQMNSLKTEDTAVYYCAADYRAPLEYWGQGTQVTVSS,low polyreactivity
20,QVQLVESGGGLVQAGGSLRLSCAASGFIFFYNAMGWYRQAPGKERELVADISSGGRTYYADSVKGRFTISRDNAKNTVYLQMNSLKPEDTAVYYCAAQSRYWVVRMDYWGQGTQVTVSS,high polyreactivity
